# Measurements taken from paper doi:10.1101/2020.05.11.088153.
# Several values for one entry are separate records, joined by “and”; a condition that tells them apart may be missing. Equal values may be shown once.
# How the values were obtained:
# [1] = target: βPFO_(Aβ(1-42)) tetramer (membrane-associated β-sheet pore forming tetramer of Aβ(1-42)) (UniProt P05067); experiment: ITC
# [2] = target: βPFO_(Aβ(1-42)) tetramer (membrane-associated β-sheet pore forming tetramer of Aβ(1-42)) (UniProt P05067); experiment: native MS
# [3] = target: βPFO_(Aβ(1-42)) tetramer (membrane-associated β-sheet pore forming tetramer of Aβ(1-42)) (UniProt P05067); experiment: SEC
substance,measurement,setting,value
somatostatin-14 (from UniProt P61278 103-116) (peptide),Kd,[1],23 µM
same,stoichiometry N,[1],2
same,stoichiometry N,[2],1 and 2
same,increase of the area under the tetramer peak,[3],20%
